Substitutions are numbered along the chain they refer to.
B1: MTK-13 (antibody, human IgG1, V domains shown)
VH: DVQLQESGPGLVKPSQSLSLTCSVTGYSITSGYYWNWIRQFPGNKLEWMGNIDYDGSNKYNPSLKNRISITRDTSKNHFFLKLNSVTPEDTATYFCARDGGNYRSFAYWGQGTLVTVSA
VL: QIVLTQSPPIMSASPGEKVTITCSASSSVSYMYWFQQKPGTSPKLWIYSTFNLASGVPARFSGSGSGTSYSLTISRMEAEDVATYYCQQRSSYPFTFGSGTKLEIK
B2: MTK-26 (antibody, human IgG1, V domains shown)
VH: AVQFQESGPGLVKLSQSLSLTCSVTGYSITSGYYWDWIRQFPGNKLEWMGYISYDGSNNYNPSLKNRISITRDTSKNQFFLKLNSVTTEDTATYYCAREGGYYRSMDYWGQGTSVTVSS
VL: B1 VL with P9A, T22A, Y31F, Y33H, K44R, F51S, V82A
B3: MTK-28 (antibody, human IgG1, V domains shown)
VH: QIQLVQSGPELKKPGETVKISCKASGYTFTTYGMSWVKQAPGKGLKWMGWINTYSGVPTYADDFKGRFAFSLETSASTAYLQINTLKNEDTTTYFCARFLRYYYFDYWGQGTTLTVSS
VL: QIVLSQSPVILSASPGEKVTMTCRASSSVTYMHWYQQQPGSSPKPWIYATSNLASGVPARFSGSGSGTSYSLTISRVETEDAATYYCHQWSGNPTFGGGTKLEIN
B4: MTK-35 (antibody, human IgG1, V domains shown)
VH: QVLLQQSGPELVKPGASVQLSCKASDYTFTSYDIHWVKQRPGQGLEWIGWIYPRDGYTKYNEIFKGKATLTVDTSSTTAYMELHSLTSEDSAVYFCARAYYTNWYYFDYWGQGTTLTVSS
VL: EIVLTQSPTTMAASPGEKITITCRASSSISSHYLHWYQQKPGFSPKLLIYRTSNLASGVPARFSGSGSGTSYSLTIGTMEAEDVATYYCQQGSTIPLTFGAGTKLVLK
B5: MTK-30 (antibody, human IgG1, V domains shown)
VH: QVQLQQPGTELVRPGASVKLSCKASGYTFTSYWMHWVKQRPGQGLEWIGNLNPNNGGTYYNEKFKSKATLTVDKSSSTAYMQLSSLTSEDSAVYYCARQILLYFDYWGQGTTLTVSS
VL: DVLMTQTPLSLPVSLGDQASISCRSSQSIVHSNGDTYLEWYLQKPGQSPKLLIYKVSNRFSGVPDRFSGSGSGTDFTLKISRVEAEDLGVYYCFQGSHVPWTFGGGTKLEIK
B6: MTK-10 (antibody, human IgG1, V domains shown)
VH: QVTLKESGPGILQPSQTLSLTCSFSGFSLTTSGMGVGWIRQPSGKGLEWLAHIWSDDDKRSNPALKSRLTISQDSSTNQVFLKIASVDTADSATYYCSHLTPVREFAYWGPGTLVTVSE
VL: DIQMTQTTSSLSASLGDRVTISCSASQGISNYLNWFQQKPDGTVKLLIYYTSRLHSGVPSRFSGSGSGTDFSLTISNLEPEDIATYYCQQYTKLPYTFGGGTKLEIK
B7: MTK-16 (antibody, human IgG1, V domains shown)
VH: LIQLVQSGPELKKPGETVKISCKASGYTFTNHGMNWVKQDPGKGLKWMGWINTYTGEPTYADDFKGRFVFSMETSASAAFLQINNLKNEDTATYFCARKGVTAARYFDYWGQGTTLTVSS
VL: DIVMTQSPKFMSTSVGDRVSITCKASQNVRTAVAWYKKKPGQSPKALINLASNRHTGVPDRFTGSGSGTDFTLTISNVQSEDLADYFCLQHWNYPLTFGGGTKLEIK
B8: MTK-27 (antibody, human IgG1, V domains shown)
VH: EVQLQQSGTELVRPGASVKLSCTASGFNIKDDYMHWVQQRPEQGLEWIGWIDPENGNTEYASKFQGKATITADASSNTAYLQLSSLTSEDTAVYYCSTLFSNYFDYWGQGTTLTVSS
VL: B7 VL with P8Q, A32S, K37Q, K38Q, N49Y, Q79R, L96Y
B9: MTK-24 (antibody, human IgG1, V domains shown)
VH: QVQLQQPGAELVKPGASVKLSCKASGYTFTSYWMHWVKQRPGQGLEWIGMIHPNINTNYNEKFKSKATLTVDISSSTAYMQLSSLTSEDSAVYYCAKRSPYSNYDWYFDVWGTGTTVTVSS
VL: DIQMTQSPASLSVSVGETVTITCRASENIYSNLAWYQQKQGKSPQLLVYAATNLADGVPSRFSGSGSGTQYSLKINSLQSEDFGSYYCQHFWGTPLTFGAGTKLELK
B10: MTK-06 (antibody, human IgG1, V domains shown)
VH: QIQLVQSGPELKKPGETVKISCKASGYTFTNYGMNWVKQAPGKGLKWMGWINTNTGEPTYAEEFKGRFAFSLETSASTAYLQINNLKNEDTATYFCARYYNYWYFDVWGAGTTVTVSS
VL: QIVLSQSPAILSASPGEKVTMTCRASSSVSYMHWYQQKPGSSPKPWIYATSNLASGVPARFSGSGSGTSYSLTISRVEAEDAATYYCQQWSSKPPTFGGGTKLEIK
B11: MTK-02 (antibody, human IgG1, V domains shown)
VH: QIQLVQSGPELKQPGETVKISCKASGYTFTDYGVNWVKQAPGKGLKWMGWINTYSGEPTYAGDFKGRFAFSLESSASTAFLQINNLKNEDMATYFCARRVRYWYFDVWGAGTSVTVSS
VL: B10 VL with K18R, S26N, G63A, I74V, S91G, K93N, P95F, G99S
B12: MTK-14 (antibody, human IgG1, V domains shown)
VH: QIQLVQSGPELKKPGETVKISCKASGYTFTNYGMNWVKQAPGKDLQWMGWINTYTGEPTYADDFTGRFAFSLETSASTAYLQINNLKNEDTATYFCAKGGHYAWFAYWGQGTLVTVSA
VL: B10 VL with A25S, A59G, S91G, K93N, P95R
B13: MTK-32 (antibody, human IgG1, V domains shown)
VH: QIQLVQSGPELKKPGETVKISCKASGYTFTSYGMSWVHQAPGKGLKWLGWINTYSGVPTYADDFRGRFAFSLDTSVSTASLEINNLQNEDTATYFCAREDNWAWFAYWGQGTLVTVST
VL: B10 VL with S26T, S30G, Q37R, K93N, P95R
B14: MTK-08 (antibody, human IgG1, V domains shown)
VH: B10 VH with N54Y, E62D, E63D, Y99E, Y100V, N101R
VL: B10 VL with S26T, Y35F, T84A, Q89H, S92G, K93N, P95R
B15: MTK-36 (antibody, human IgG1, V domains shown)
VH: QVTLKESGPGILQPSQTLSLTCSFSGFSLSTFGMGVGWIRQPSGKGLEWLAHIWWYDDKYYEPALKSRLTISKDSSKNQVFLKIANVDTADTATYYCARIYYGTSYRYFDVWGTGTTVTVSS
VL: B10 VL with S14F, S26T, S30R, S51Y, A54T, Q88H, K93N, P95Y

Each binder was assayed against T1, Recombinant human MerTK human Fc Chimera protein (R&D systems, Cat #391-MR-100) (human, UniProt Q12866 26-499, limits assumed) (assay: competition ELISA, His-ProS on captured MerTK-Fc).
T1 construct: Bought; also called recombinant human MerTK protein; MerTK-Fc
T1 sequence: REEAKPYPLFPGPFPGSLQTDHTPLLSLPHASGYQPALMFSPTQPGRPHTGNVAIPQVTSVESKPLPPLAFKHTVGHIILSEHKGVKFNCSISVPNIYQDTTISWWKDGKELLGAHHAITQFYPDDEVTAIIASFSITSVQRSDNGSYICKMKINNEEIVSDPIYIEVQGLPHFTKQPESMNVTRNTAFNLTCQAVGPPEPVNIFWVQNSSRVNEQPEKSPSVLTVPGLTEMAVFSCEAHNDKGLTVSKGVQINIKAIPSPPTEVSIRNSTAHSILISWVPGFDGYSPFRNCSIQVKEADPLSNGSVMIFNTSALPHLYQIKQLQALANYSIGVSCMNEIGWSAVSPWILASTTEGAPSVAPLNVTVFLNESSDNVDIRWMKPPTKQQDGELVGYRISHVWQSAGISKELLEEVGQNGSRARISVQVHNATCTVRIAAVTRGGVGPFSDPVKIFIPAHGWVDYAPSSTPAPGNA
Summary of the method: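 MerTK-Fc (2 μg/ml) captured on plate-bound anti-human IgG was exposed to anti-MerTK antibodies (66.6 nM-4 pM final) together with His-Gas6 at 3 μg/ml or His-ProS at 20 μg/ml for 1 h. Bound ligand was detected with HRP-anti-His and TMB. IC50 (nM) was derived from OD450 dose-response curves.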

First: B1
Second: B2
The IC50 of the first is 3.1-fold higher: 3.76 nM for the first, 1.2 nM for the second.

Compared with B3, B4 is 3-fold lower in IC50: 2.78 nM for the first, 0.924 nM for the second. The second is the more potent here.

Compared with B5, B6 is 2.4-fold higher in IC50: 1.57 nM for the first, 3.8 nM for the second. The first is the more potent here.

First: B7
Second: B8
The IC50 of the first is 3.4-fold higher: 8.59 nM for the first, 2.54 nM for the second. The second is the more potent here.

First: B9
Second: B10
The IC50 of the first is 3.7-fold lower: 0.579 nM for the first, 2.17 nM for the second.

Going from B11 to B12, the IC50 rises from 3.94 nM to 7.61 nM (1.9-fold). The first is the more potent here.

B13 and B14 are within 1.5-fold of each other in IC50: 2.78 nM for the first, 3.8 nM for the second.

With B15 the IC50 was 1.4 nM.

Each binder was assayed against T2, human MerTK endogenously expressed on cells (SK-MEL-5 cells; human macrophages) (human, UniProt Q12866 21-999) (assay: flow cytometry on SK-MEL-5 cells, Prism fit).
T2 construct: also called MerTK on SK-MEL-5
T2 sequence: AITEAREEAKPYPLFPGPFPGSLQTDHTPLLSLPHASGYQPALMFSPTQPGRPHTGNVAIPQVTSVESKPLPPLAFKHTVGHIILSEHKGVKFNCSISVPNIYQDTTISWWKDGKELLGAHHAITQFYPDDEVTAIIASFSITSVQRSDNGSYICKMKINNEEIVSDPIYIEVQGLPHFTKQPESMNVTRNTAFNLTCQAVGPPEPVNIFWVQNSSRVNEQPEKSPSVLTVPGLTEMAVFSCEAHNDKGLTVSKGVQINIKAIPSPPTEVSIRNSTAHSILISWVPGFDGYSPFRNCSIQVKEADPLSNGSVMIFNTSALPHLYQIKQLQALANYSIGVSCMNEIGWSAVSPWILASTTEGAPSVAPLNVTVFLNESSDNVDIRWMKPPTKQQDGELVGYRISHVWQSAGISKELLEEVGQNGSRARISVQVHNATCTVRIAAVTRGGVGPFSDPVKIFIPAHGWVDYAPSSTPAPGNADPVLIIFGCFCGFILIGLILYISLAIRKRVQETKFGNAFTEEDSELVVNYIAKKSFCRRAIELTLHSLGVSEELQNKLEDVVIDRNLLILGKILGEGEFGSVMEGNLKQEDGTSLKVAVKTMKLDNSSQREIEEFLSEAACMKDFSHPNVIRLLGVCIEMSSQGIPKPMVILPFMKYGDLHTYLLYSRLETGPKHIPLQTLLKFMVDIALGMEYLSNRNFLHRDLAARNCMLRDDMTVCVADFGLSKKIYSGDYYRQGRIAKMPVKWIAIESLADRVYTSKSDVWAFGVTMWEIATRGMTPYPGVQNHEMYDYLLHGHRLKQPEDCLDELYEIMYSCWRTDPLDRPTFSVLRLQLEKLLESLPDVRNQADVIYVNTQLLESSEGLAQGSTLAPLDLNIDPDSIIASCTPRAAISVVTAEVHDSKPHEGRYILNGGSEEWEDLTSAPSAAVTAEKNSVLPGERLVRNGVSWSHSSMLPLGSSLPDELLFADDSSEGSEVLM
Method: To determine whether recombinant anti-human MerTK antibodies of the present disclosure bind to human MerTK endogenously expressed on SK-MEL-5 cells and to CHO cells overexpressing mouse MerTK (CHO-muMerTK OE cells), the following experiments were performed. SK-MEL-5 cells and CHO-muMerTK OE cells were plated at 40,000 cells/well. Anti-MerTK antibodies were titrated to a final concentration range of between 66.6 nM to 4 pM and then added to the cells. After 30 min on ice, cells were washed and then stained with APC-conjugated mouse anti-human Kappa antibody (Southern Biotech Cat #9230-11, Birmingham, Ala.) and a viability die (Life Technologies) in the presence of Fc block solution on ice for 30 minutes, and then washed twice with cold FACS buffer (2% FBS in PBS). Cells were fixed with 4% paraformaldehyde in PBS. Stained cells were acquired on a BD FACS Canto II cytometer and the mean fluorescence intensity (MFI) was calculated with FlowJo software and K value was calculated with Prism software. […] A lower Kd value reflects higher binding of antibody to cells.

Going from B1 to B2, the Kd rises from 0.68 nM to 1.38 nM (2-fold).

Going from B3 to B4, the Kd rises from 0.52 nM to 1.29 nM (2.5-fold). The first binds more tightly here.

Compared with B5, B6 is 6.2-fold lower in Kd: 0.47 nM for the first, 0.076 nM for the second. The second binds more tightly here.

Going from B7 to B8, the Kd rises from 1.66 nM to 2.55 nM (1.5-fold). The first binds more tightly here.

Going from B9 to B10, the Kd falls from 0.59 nM to 0.005 nM (120-fold).

B11 and B12 are within 1.5-fold of each other in Kd: 0.024 nM for the first, 0.021 nM for the second.

Compared with B13, B14 is 5.1-fold lower in Kd: 0.4 nM for the first, 0.079 nM for the second. The second binds more tightly here.

B15 was tested, and the Kd was 1.42 nM.
